Source: patent US20140289906A1, “Compositions Having Dicamba Decarboxylase Activity and Methods of Use” (priority 2013, published 2014)

Assays:
[1] = LC-MS/MS detection of 4-chloro-3-methoxy phenol; assay type: biochemical; settings: purified protein, dicamba
Protocol: The decarboxylated and chloro hydrolyzed product, 4-chloro-3-methoxy phenol (FIG. 1D), is measured using a LC-MS/MS analytical procedure. […] 10 ul is removed from the reaction mixture and mixed with 90 ul pre-chilled methanol followed by centrifugation at 14,000 rpm for 15 min at 4° C. 10 ul of the supernatant is then transferred into 170 ul ddH2O to achieve 5% methanol solution for injection. 50 ul of the prepared sample is injected into a 4000 Q Trap LC-MS/MS system for sample analysis. LC-MS/MS parameters are: Mobile Phase A, 2 mM ammonium acetate in water; Mobile Phase B, 2 mM ammonium acetate in methanol; Column, Aquasil, 100×2.1 mm, 3 μm, C18 column; Flow Rate, 0.6 ml/min. The MS/MS fragment 157/142 which is common to 4-chloro-3-methoxy phenol, 2-chloro-5-methoxy phenol, and 3-chloro-5-methoxy phenol is monitored at a retention time of 2.88 min.

[2] = GC/MS detection of 2,5-dichloro phenol (2,5-DCP); kinetic determination; assay type: biochemical; settings: purified protein, dicamba
Protocol: The decarboxylated and demethylated product of dicamba, 2,5-dichloro phenol or 2,5-DCP (FIG. 1E) is measured using a GC/MS analytical procedure with either liquid injection after liquid/liquid extraction using toluene as the extraction solvent or gas injection using head space method. The head space sample analysis is carried out on an Agilent GC/MS system with a 6890A GC, a 5973N MSD and a CTC CombiPAL auto-sampler or with a 7890A GC, a 5975C MSD and an Agilent GC Sampler 80 auto-sampler with Phenomenex ZB-MultiResidue-1 column (30 m length, 0.25 mm diameter, 0.25 um film) or equivalent. GC/MS parameters are: GC inlet temperature, 200° C.; Carry gas, helium in constant flow mode (1.2 mL/min); Oven temperature program, 70° C. for 1 min and then ramp to 275° C. at 40° C./min. […] The reaction vial is transferred to a agitator for incubation at 90° C. for 4 min at 500 rpm. With a syringe preheated at 110° C., 1000 uL of head space is injected with sample fill speed at 100 uL/sec. A 2-mm diameter liner is used in sample inlet. The MS data acquisition is done in SIM (selected ion monitoring) mode. The positive ion at M/Z 162 for the molecular ion of 2,-5-DCP is monitored at retention time of 4.06 min. Solvent delay for MS acquisition is set at 3 min. GC/MS parameters for liquid sample analysis are the same as those for head space analysis, except that the volume of liquid injection is 1 uL.

[3] = 14C assay: 14CO2 capture from [14C]-carboxyl-labeled dicamba with purified protein; assay type: biochemical
[4] = 14C assay: 14CO2 capture from [14C]-carboxyl-labeled dicamba with IPTG-induced recombinant E. coli cells; settings: for Enzymatic Detection level: dicamba decarboxylation activity
[5] = Dicamba decarboxylation activity of computationally designed protein variants and parents (Tables 4, 5); settings: for dicamba decarboxylase activity (statement in the description): native proteins and designed variants, assay not specified
[6] = GC/MS detection of 2,5-dichloro anisole (2,5-DCA), toluene trapping or head-space; assay type: biochemical; settings: purified protein, dicamba, toluene capturing
Protocol: Alternatively, dicamba decarboxylase activity can be monitored by measuring decarboxylation products other than CO2 using product detection methods. The decarboxylation product of dicamba, 2,5-dichloro anisole or 2,5-DCA (FIG. 1C), is a volatile compound with a flash point of 21° C. To capture this volatile compound for detection, 140 ul of toluene solution is added on top of 1 ml reaction mixture to form a trapping layer in a 1.5 ml eppendorf tube. […] The reaction is kept still at room temperature overnight before being vortex mixed and centrifuged at 14,000 rpm for 15 minutes. The top toluene phase is carefully removed using a micropipette and transferred into a 12×32 mm polypropylene vial (Vial 11 mm) from MicroLiter Analytical Supplies, Inc. (catalog number 11-5300-100). The vial is sealed with Crimp seal (11 mm with FEP/Nat Rubber) from MicroLiter Analytical Supplies, Inc. (catalog number 11-0020A) using a E-Z Crimper™ 11 mm from Wheaton Inc. 1 ul of the toluene mixture is taken from the sealed vials and injected in splitless mode into a GC/MS system for sample analysis (Agilent GC/MS system with a 6890A GC, a 5973N MSD and a CTC CombiPAL auto-sampler or with a 7890A GC, a 5975C MSD and an Agilent GC Sampler 80 auto-sampler). The GC parameters are: Agilent DB-5MS column (30 m length, 0.25 mm diameter, 0.25 um film) or equivalent; The GC inlet temperature, 250° C.; Carry gas, helium in constant flow mode (1.2 mL/min); The GC oven temperature program, initial temperature at 70° C. for 1 min, ramping to 200° C. at 15° C./min, and then ramping to 250° C. at 30° C./min. MS data acquisition is done in SIM (selected ion monitoring) mode, monitoring the positive ion at M/Z 176 for the molecular ion of […]. The solvent delay for MS acquisition is set at 4 min. Another method for detection of 2,5-DCA is a head-space GC/MS method. Briefly, reaction mixtures in 500 ul reaction volume are prepared in 1.5 ml 12×32 mm glass vials (Microliter Analytical Supplies, Cat#11-1200) for head space analysis. Glass vials are sealed with magnetic cap from MicroLiter Analytical Supplies, Inc. (catalog number 11-0030AT) using a E-Z Crimper™ 11 mm from Wheaton Industries Inc. The reaction is carried out at room temperature for various amount of time and stopped by heating at 95° C. for 5 min. The reaction vial is transferred to a agitator for incubation at 80° C. for 5 min at 500 rpm. With a syringe preheated at 80° C., 1000 uL of head space is injected with sample fill speed at 100 uL/sec. GC/MS parameters for headspace analysis are the same as for liquid sample analysis.

B1: 1 (protein, listed as Rhizobium sp.)
chain: MAQGKVALEEHFAIPETLQDSAGFVPGDYWKELQHRLLDIQDTRLKLMDAHGIETMILSLNAPAVQAIPDRRKAIEIARRANDVLAEECAKRPDRFLAFAALPLQDPDAATEELQRCVNDLGFVGALVNGFSQEGDGQTPLYYDLPQYRPFWGEVEKLDVPFYLHPRNPLPQDSRIYDGHPWLLGPTWAFAQETAVHALRLMASGLFDEHPRLNIILGHMGEGLPYMMWRIDHRNAWVKLPPRYPAKRRFMDYFNENFHITTSGNFRTQTLIDAILEIGADRILFSTDWPFENIDHASDWFNATSIAEADRVKIGRTNARRLFKLDGA
[1]
  4-chloro-3-methoxy phenol product detected: detected
[2]
  2,5-DCP product detected: detected
[3]
  CO2 product detected: detected
[4]; IPTG-induced recombinant E. coli cells, 14CO2 from [14C]-carboxyl-labeled dicamba
  Dicamba Decarboxylase Activity: High
[4]; among the 108 sequences tested, recombinant E. coli cell assay
  decarboxylation activity of dicamba: showed decarboxylation activity of dicamba
[4]
  Enzymatic Detection level: High
[5]
  dicamba decarboxylase activity (statement in the description): native dicamba decarboxylase activity
[5]; parent (SEQ ID NO: 1 or SEQ ID NO: 41) = 100
  Percent Activity Improvement Over Parent (%): 100%
[6]
  2,5-DCA product detected: detected

B2: 118 (protein)
chain: MAKKPRIDMHSHFFPRISEQEAAKFDANHAPWLQVSAKGDTGSIMMGKNNFQPVYQALWDPAFRIEEMDAQGVDVQVTCATPVMFGYTWEANKAAQWAERMNDFALEFAAHNPQRIKVLAQVPLQDLDLACKEASRAVAAGHLGIQIGNHLGDKDLDDATLEAFLTHCANEDIPILVHGTDMMGGQRMKKWGLPWLVALAAEVQLAILSLILSGAFERIPKSLKICFSHGGGSFAFLLGLVDEAWRHVDIVREDCPRPPSEYVDRFFVDSVGNPGALELLVSVMGEDRVMLGSDYPHTTGEQKIGGLVLSSNLGESAKDKIISGNASKFFNINV
modifications: Dicamba decarboxylase variant clone DC.5.033
[1]
  4-chloro-3-methoxy phenol product detected: not detected
[2]
  2,5-DCP product detected: not detected
[3]
  CO2 product detected: not detected
[4]
  Enzymatic Detection level: High
[5]
  dicamba decarboxylase activity (statement in the description): have dicamba decarboxylase activity
[6]
  2,5-DCA product detected: detected

B3: 119 (protein)
chain: MAKKPRIDMHSHFFPRISEQEAAKFDANHAPWLQVSAKGDTGSIMMGKNNFQPVYQALWDPAFRIEEMDAQGVDVQVTCATPVMFGYTWEANKAAQWAERMNDFALEFAAHNPQRIKVLAQVPLQDLDLACKEASRAVAAGHLGIQIGNHLGDKDLDDATLEAFLTHCANEDIPILVHGWDMMGGQRMKKWGLYWLVAHHAEVQLAILSLILSGAFERIPKSLKICFSHGGGSFAFTLGWVDEAWRHVDIVREDCPRPPSEYVDRFFVDSVGNPGALELLVSVMGEDRVMLGSDYPLTTGEQKIGGLVLSSNLGESAKDKIISGNASKFFNINV
modifications: Dicamba decarboxylase variant cloneDC.5.034
[1]
  4-chloro-3-methoxy phenol product detected: not detected
[2]
  2,5-DCP product detected: not detected
[3]
  CO2 product detected: not detected
[4]
  Enzymatic Detection level: High
[5]
  dicamba decarboxylase activity (statement in the description): have dicamba decarboxylase activity
[6]
  2,5-DCA product detected: detected

B4: 120 (protein)
chain: MAIIDCHGHYTTTPKGVETYRNAQKAAVAKDPSFKYEKGQVVVSDDEIRESIENNQLKMQRERGTDLTIFSPRSTAGGHHIGNEYTSQFWTEHQNDLIRRVCDLFPKNFAPVAQLPQSPGVDPAKSVPEIVRTVEQMGFIGINLNPDPSGGYWKDTSLADRAFYPIYEKMVEYDIPAMIHPRNACNDCFHTTGSHALGADTTGFQQLIMSDVFKDFPSLKIIIPHGGGAVPYHWGRFRGLMQDQGYAPLEESALKNIYFDTCVYHQRGIDLLLDIVPTQNILFASEMIGAVRGIDAETGHNFDDTKRYIDNNTALNAEEKAMIFEGNARRVFSRLKTD
modifications: Dicamba decarboxylase variant clone DC.12.002
[1]
  4-chloro-3-methoxy phenol product detected: not detected
[2]
  2,5-DCP product detected: not detected
[3]
  CO2 product detected: not detected
[4]
  Enzymatic Detection level: High
[5]
  dicamba decarboxylase activity (statement in the description): have dicamba decarboxylase activity
[6]
  2,5-DCA product detected: detected

B5: 117 (protein)
chain: MAKKPRIDMHSHFFPRISEQEAAKFDANHAPWLQVSAKGDTGSIMMGKNNFRPVYQALWDPAFRIEEMDAQGVDVQVTCATPVMFGYTWEANKAAQWAERMNDFALEFAAHNPQRIKVLAQVPLQDLDLACKEASRAVAAGHLGIQIGNHLGDKDLDDATLEAFLTHCANEDIPILVHPWDMMGGQRMKKWMLPVLVAAPAEVQLAILSLILSGAFERIPKSLKICFAGGGGSFAFLLGIVDLAWRHRDIVREDCPRPPSEYVDRFFVDSLVFNPGALELLVSVMGEDRVMLGSDYPFPTGEQKIGGLVLSSNLGESAKDKIISGNASKFFNINV
modifications: Dicamba decarboxylase variant clone DC.5.008
[1]
  4-chloro-3-methoxy phenol product detected: not detected
[2]
  2,5-DCP product detected: not detected
[3]
  CO2 product detected: not detected
[4]
  Enzymatic Detection level: High
[5]
  dicamba decarboxylase activity (statement in the description): have dicamba decarboxylase activity
[6]
  2,5-DCA product detected: detected

B6: 121 (protein)
chain: MAIIDCHGHYTTTPKGVEDYRNAQKAAVAKDPSFKGEKGQVVVSDDEIRESIENNQLKMQRERGTDLTIFSPRWDAGGHHIGNEYTSQFWTEHQNDLIRRVCDLFPKNFAPVAQLPQSPGVDPAKSVPEIVRTVEQMGFIGINLNPDPSGGYWKDTSLADRAFYPIYEKMVEYDIPAMIHPRLACNACFHTGLSVGLGADTTGFQQLIMSDVFKDFPSLKIIIPHGGGAVPYHWGRFRGLMQDQGYAPLEESALKNIYFDTCVYHQRGIDLLLDIVPTQNILFASEMIGAVRGIDPETGHNFDDTKRYIDNNTALNAEEKAMIFEGNARRVFSRLKTD
modifications: Dicamba decarboxylase variant clone DC.12.014
[1]
  4-chloro-3-methoxy phenol product detected: not detected
[2]
  2,5-DCP product detected: not detected
[3]
  CO2 product detected: not detected
[4]
  Enzymatic Detection level: High
[5]
  dicamba decarboxylase activity (statement in the description): have dicamba decarboxylase activity
[6]
  2,5-DCA product detected: detected
